Residue numbers refer to the chain shown, from its start. Numbers in names are those of the source.
B1: TDP-43 prion-like domain, TDP-43(267–414) (domain or fragment, UniProt Q13148 267-414, looked up)
chain: NRQLERSGRFGGNPGGFGNQGGFGNSRGGGAGLGNNQGSNMGGGMNFGAFSINPAMMAAAQAALQSSWGMMGMLASQQNQSGPSGNNQNQGNMQREPNQAFGSGNNSYSGSNSGAAIGWGSASNAGSGSGFNGGFGSSMDSKSSGWGM
notes: Uniformly 15N or 15N/13C labelled for NMR; Fibril seeds of this molecule (from the SSNMR rotor) are the target in the cross-seeding assay; also called TDP-43 PrLD; PrLD of TDP-43; source: E. coli BL21 Star (DE3), inclusion bodies, purified (Ni-NTA in 8 M urea, PD-10 desalting at pH 4)
B2: TDP-43 PrLD variant F313A+F316A (domain or fragment, UniProt Q13148 267-414, looked up)
chain: B1 chain with F47A, F50A
notes: TDP-43 prion-like domain, residues 267-414, with the 2 central Phe residues changed to Ala; The text prints the variant once as F312A+F316A and otherwise as F313A+F316A; also called double mutant; F312A+F316A (as printed once); source: desalted from the 8 M urea-containing solution with a PD-10 column

Assays:
[1] = biological target: the molecule itself; experiment: solution NMR, 1H-15N HSQC peak intensities over time; 55 and 110 μM TDP-43 PrLD, pH 4.0, 298 K, 1 mM CD3COOD in 85/15 H2O/D2O, no salt or RNA; first spectrum within 1 hour, second after approximately 20 hours; self-association into aggregates and droplets
[2] = biological target: B1; experiment: cross-seeding followed by ThT fluorescence; 5 μM of each protein variant in 1 mM CD3COOD with 40 μM ThT, 2% (0.12 μM) seeds of the wild-type fibrils studied by SSNMR, 25°C, excitation 450 nm, emission 480 nm; details: both partners purified

binding result [2]	Binder	binding result [1]
	B1	binds
binds	B2	

Reference: PMC8109789, “Phe-Gly motifs drive fibrillization of TDP-43’s prion-like domain condensates” (PLoS Biology, 2021)
